According to patent publication US20120264212:

System: T1, Dab2 N-terminal phosphotyrosine binding (N-PTB) domain, residues 1-241 of human Disabled-2, wild type
T1 sequence: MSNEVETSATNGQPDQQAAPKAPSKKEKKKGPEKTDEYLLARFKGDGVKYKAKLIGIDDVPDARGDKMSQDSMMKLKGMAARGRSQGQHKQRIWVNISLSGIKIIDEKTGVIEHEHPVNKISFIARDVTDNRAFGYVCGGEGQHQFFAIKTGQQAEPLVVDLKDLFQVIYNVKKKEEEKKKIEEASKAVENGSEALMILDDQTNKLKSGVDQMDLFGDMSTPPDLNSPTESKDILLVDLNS

thrombin
thrombin limited proteolysis (SDS-PAGE): thrombin cleaved the N-PTB domain leaving a ˜25 kDa protease-resistant product
